Assay [1] deals with SARS-CoV-2 Omicron BA.5 spike ectodomain trimer, prefusion-stabilised (BA.5-S6P) (SARS-CoV-2 Omicron BA.5, N440K | proline substitutions at 986 and 987 | proline substitutions at 986 and …). Kind of assay: cryo-EM structure. The conditions noted are these: both partners purified.
The target of assay [2] is spike protein on native SARS-CoV-2 virions (Victoria variant) (SARS-CoV-2, Victoria isolate (entry: …, UniProt P0DTC2, strain)). Kind of assay: cryo-EM imaging of virions. The settings on record: one partner purified.

B1: 1C4 Fab (Fab, V domains shown)
VH: QIQLVQSGPELKKPGETVKISCKASGYTFTDYGLNWVKQAPGKGLKWMGWINTYSGEPTYNDEFRGRFAFSLETSTITAYLKINNLKNEDTATYFCARGGNWDWYFDVWGAGTTVTVSS
VL: DIVLTQSPATLSVTPGDNVSLSCRASQIISNNLHWYQQKSHESPRLLIKYASQSISGIPSRFSGSGSGTDFTLSINSVETEDFGMYFCQQSNTWPLTCGSGTKLELN
In general, stoichiometry N refers to a count of units in the complex or per binding partner. For B1, in assay [1], the “stoichiometry N” value is 3 Fabs per spike trimer.

B2: 1C4 (murine monoclonal antibody, IgG format) (antibody, V domains shown)
VH: B1 VH
VL: B1 VL
In the case of B2, the binding result in assay [2] was “binds”.

The record behind these values is article PMC12697983 (PLOS Pathogens, 2025).
